Reference: patent publication US20240116985A1, “STAPLED PEPTIDES AND METHODS THEREOF” (priority 2020, published 2024)
Starred links: 1 amine or outer side, 2 acyl side, 3 side chain; linkers in the order of their positions; H or OH if unused. Positions of bridges follow the written chain, without caps; N, C: chain ends. Non-standard residues stand in square brackets, D forms with d. Primed or numbered codes have the meaning given here. *: point of attachment. PyrS2″ = (S)-3-amino-1-((pent-4-en-1-yloxy)carbonyl)pyrrolidine-3-carboxylic acid (stapling residue), C=CCCCOC(=O)N1CC[C@@](N[*:1])(C(=O)[*:2])C1; B5(4) = 2,2-bis(4-pentenyl)glycine = 2-amino-2-(pent-4-en-1-yl)hept-6-enoic acid (stitching residue), C=CCCCC(CCCC=C)(N[*:1])C(=O)[*:2]; B5(33) = 2-amino-2-(pent-4-en-1-yl)hept-6-enoic acid (bis-pentenylglycine, two olefin side chains), C=CCCCC(CCCC=C)(N[*:1])C(=O)[*:2]; B5(20) = 2-amino-2-(pent-4-en-1-yl)hept-6-enoic acid = bis(4-pentenyl)glycine, stitching residue, C=CCCCC(CCCC=C)(N[*:1])C(=O)[*:2]; PyrS2 = (S)-3-amino-1-((pent-4-en-1-yloxy)carbonyl)pyrrolidine-3-carboxylic acid, C=CCCCOC(=O)N1CC[C@@](N[*:1])(C(=O)[*:2])C1; B5(3) = 2,2-bis(4-pentenyl)glycine (stitching residue), C=CCCCC(CCCC=C)(N[*:1])C(=O)[*:2]; S10 = (S)-2-amino-2-methyldodec-11-enoic acid, C=CCCCCCCCC[C@](C)(N[*:1])C(=O)[*:2]; mPEG2 = N-terminal 3-(2-methoxyethoxy)propanoic acid, COCCOCCC(=O)*; Ala(4-thiazolyl) = N[C@@H](Cc1cscn1)C(=O)O; Phe(2-Cl) = N[C@@H](Cc1ccccc1Cl)C(=O)O; Bta = N[C@@H](Cc1csc2ccccc12)C(=O)O; αAllylPro = C=CC[C@@]1(C(=O)O)CCCN1; tBuAla = CC(C)(C)C[C@H](N)C(=O)O; 3Thi = N[C@@H](Cc1ccsc1)C(=O)O; S8 = C=CCCCCCC[C@](C)(N)C(=O)O; Thr(ol) = C[C@@H](O)[C@H](N)CO; Propanoyl(3-OMe) = COCCC(=O)*; Leu(ol) = CC(C)C[C@H](N)CO; Octanoyl = CCCCCCCC(=O)*; Dab = NCC[C@H](N)C(=O)O; Nva = CCC[C@H](N)C(=O)O; Abu = CC[C@H](N)C(=O)O; Dap = NC[C@H](N)C(=O)O; Alaol = C[C@@H](CO)N*; Ms = CS(=O)(=O)*

B1: I-1265 (peptide)
peptide: Ac-[αAllylPro]D[tBuAla][B5(33)]DTALFT[PyrS2]F[Bta]S-NH2
modifications: staple 1-4, 4-11
B2: I-1254 (peptide)
peptide: Octanoyl-[αAllylPro]D[tBuAla][B5(4)]DDAAFT[S8][Phe(2-Cl)][Bta]Q-NH2
modifications: staple 1-4, 4-11
B3: I-1255 (peptide)
peptide: mPEG2-[αAllylPro]D[tBuAla][B5(33)]DDAAFT[S8][Phe(2-Cl)][Bta]Q-NH2
modifications: staple 1-4, 4-11
B4: I-1264 (peptide)
peptide: Ac-[αAllylPro]D[tBuAla][B5(33)]DTLAFT[PyrS2]F[Bta]S-NH2
modifications: staple 1-4, 4-11
B5: I-1260 (peptide)
peptide: XDXXDDAAFTXFXQ
modifications: not fully specified; MeSO2-PL3-Asp-Npg-B5-Asp-Asp-Ala-Ala-Phe-Thr-S8-2C1F-BztA-Gln-NH2; stapled by olefin metathesis (PL3-B5 and B5-S8)
B6: I-1251 (peptide)
peptide: Ac-[αAllylPro]D[tBuAla][B5(4)]DDAAFL[PyrS2″][Phe(2-Cl)][Bta][Leu(ol)]
modifications: staple 1-4, 4-11
B7: I-1249 (peptide)
peptide: Ac-[αAllylPro]D[tBuAla][B5(4)]DDAAFL[PyrS2″][Phe(2-Cl)][Bta][Thr(ol)]
modifications: staple 1-4, 4-11
B8: I-1261 (peptide)
peptide: {Propanoyl(3-OMe)}-[αAllylPro]D[tBuAla][B5(33)]DDAAFT[S8][Phe(2-Cl)][Bta]Q-NH2
modifications: staple 1-4, 4-11
B9: I-1262 (peptide)
peptide: Ac-[αAllylPro]D[tBuAla][B5(33)]DDAAFT[S10][Phe(2-Cl)][Bta]T-NH2
modifications: staple 1-4, 4-11
B10: I-1263 (peptide)
peptide: Ac-[αAllylPro]D[tBuAla][B5(33)]DTAAFT[PyrS2]F[Bta]S-NH2
modifications: staple 1-4, 4-11
B11: I-1250 (peptide)
peptide: Ac-[αAllylPro]D[tBuAla][B5(4)]DDAAFL[PyrS2″][Phe(2-Cl)][Bta]-Alaol
modifications: staple 1-4, 4-11
B12: I-523 (peptide)
peptide: Ac-[αAllylPro]D[Nva][B5(4)]DEAAFQ[S8]F[Bta]Q-NH2
modifications: staple 1-4, 4-11; also: later eluting HPLC peak staple isomer
B13: I-531 (peptide)
peptide: Ac-[αAllylPro]DA[B5(4)][Dab](Ms)EAAFN[S8]F[Bta]Q-NH2
modifications: staple 1-4, 4-11
B14: I-517 (peptide)
peptide: Ac-[αAllylPro]DI[B5(20)]DEAAFN[S8][3Thi][Bta]H-NH2
modifications: staple 1-4, 4-11
B15: I-530 (peptide)
peptide: Ac-[αAllylPro]DA[B5(4)][Dap](Ms)EAAFN[S8]F[Bta]Q-NH2
modifications: staple 1-4, 4-11
B16: I-519 (peptide)
peptide: Ac-[αAllylPro]DA[B5(20)]DEAAFN[S8][3Thi][Bta]Q-NH2
modifications: staple 1-4, 4-11; also: later-eluting HPLC peak of staple isomers
B17: I-509 (peptide)
peptide: Ac-[αAllylPro]DA[B5(4)]DEAAFQ[S8]F[Bta][Abu]-NH2
modifications: staple 1-4, 4-11
B18: I-524 (peptide)
peptide: Ac-[αAllylPro]DA[B5(4)]DEAA[Ala(4-thiazolyl)]N[S8]F[Bta]Q-NH2
modifications: staple 1-4, 4-11

biological target: full-length beta-Catenin (Uniprot ID P35222) (Homo sapiens (Human)) (UniProt P35222); experiment: fluorescence polarization competition, competitor 5FAM-TCF4 10-53
Target sequence in this assay (P35222 2-781 limits assumed): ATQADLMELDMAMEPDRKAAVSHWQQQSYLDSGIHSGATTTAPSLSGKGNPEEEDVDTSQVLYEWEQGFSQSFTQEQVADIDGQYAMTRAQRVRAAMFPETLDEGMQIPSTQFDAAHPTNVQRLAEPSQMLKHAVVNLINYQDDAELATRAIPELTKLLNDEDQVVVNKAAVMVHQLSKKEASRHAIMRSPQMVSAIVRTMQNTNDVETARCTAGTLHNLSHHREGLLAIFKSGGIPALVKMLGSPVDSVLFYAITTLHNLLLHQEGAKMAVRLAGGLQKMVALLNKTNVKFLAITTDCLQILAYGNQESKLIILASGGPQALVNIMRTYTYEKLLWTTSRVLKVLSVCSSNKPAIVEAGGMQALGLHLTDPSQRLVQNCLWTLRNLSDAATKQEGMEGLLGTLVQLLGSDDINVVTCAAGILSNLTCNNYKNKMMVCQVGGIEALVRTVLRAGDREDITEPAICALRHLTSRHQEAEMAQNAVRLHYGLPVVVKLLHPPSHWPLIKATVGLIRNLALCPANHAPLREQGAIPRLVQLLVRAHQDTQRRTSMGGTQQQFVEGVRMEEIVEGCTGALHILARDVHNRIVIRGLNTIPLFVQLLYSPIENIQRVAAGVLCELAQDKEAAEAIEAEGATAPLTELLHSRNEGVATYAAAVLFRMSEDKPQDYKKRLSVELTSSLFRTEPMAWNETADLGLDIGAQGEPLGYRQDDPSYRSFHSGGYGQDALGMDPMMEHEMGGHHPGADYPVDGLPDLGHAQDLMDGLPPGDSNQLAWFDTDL

| IC50 | Binder |
| --- | --- |
| 152 nM | B1 |
| 530 nM | B2 |
| 32 nM | B3 |
| 157 nM | B4 |
| 23 nM | B5 |
| 1940 nM | B6 |
| 17 nM | B7 |
| 31 nM | B8 |
| 1120 nM | B9 |
| 43 nM | B10 |
| 31 nM | B11 |

biological target: full-length beta-Catenin (Uniprot ID P35222) (Homo sapiens (Human)) (UniProt P35222); experiment: FP competition: full-length beta-catenin 10 nM + 5FAM-TCF4(10-53) 10 nM
Target sequence in this assay (P35222 whole entry): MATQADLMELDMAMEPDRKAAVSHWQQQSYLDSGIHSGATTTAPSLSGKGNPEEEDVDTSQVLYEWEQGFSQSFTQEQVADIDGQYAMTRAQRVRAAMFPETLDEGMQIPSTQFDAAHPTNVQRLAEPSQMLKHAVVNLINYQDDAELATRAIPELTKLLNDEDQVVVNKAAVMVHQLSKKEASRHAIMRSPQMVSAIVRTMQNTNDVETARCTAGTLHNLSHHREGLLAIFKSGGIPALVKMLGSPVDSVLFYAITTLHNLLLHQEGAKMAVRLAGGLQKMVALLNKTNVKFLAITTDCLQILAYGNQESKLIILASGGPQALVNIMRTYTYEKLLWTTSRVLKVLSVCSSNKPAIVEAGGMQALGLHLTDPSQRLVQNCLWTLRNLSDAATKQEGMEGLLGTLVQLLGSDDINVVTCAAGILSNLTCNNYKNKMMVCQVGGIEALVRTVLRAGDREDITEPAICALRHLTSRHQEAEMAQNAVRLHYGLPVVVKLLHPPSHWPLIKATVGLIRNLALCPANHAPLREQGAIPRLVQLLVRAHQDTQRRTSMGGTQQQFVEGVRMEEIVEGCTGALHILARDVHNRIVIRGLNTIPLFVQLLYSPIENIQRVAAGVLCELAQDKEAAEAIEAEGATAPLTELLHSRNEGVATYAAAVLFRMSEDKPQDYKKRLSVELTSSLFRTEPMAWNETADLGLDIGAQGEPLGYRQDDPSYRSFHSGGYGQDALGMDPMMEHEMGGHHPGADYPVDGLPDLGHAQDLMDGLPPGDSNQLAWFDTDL

| IC50 | Binder |
| --- | --- |
| 44 nM | B12 |
| 5000 nM | B13 |
| 15 nM | B14 |
| 5000 nM | B15 |
| 33 nM | B16 |
| 99 nM | B17 |
| 2550 nM | B18 |

biological target: full-length beta-Catenin (Uniprot ID P35222) (Homo sapiens (Human)) (UniProt P35222); experiment: FP competition: displacement of 5FAM-TCF4(10-53) from full-length beta-catenin
Target sequence in this assay (P35222 whole entry): as above

| EC50 | Binder |
| --- | --- |
| 530 nM | B2 |
| 32 nM | B3 |
| 1940 nM | B6 |
| 17 nM | B7 |
| 31 nM | B11 |

biological target: full-length beta-Catenin (Uniprot ID P35222) (Homo sapiens (Human)) (UniProt P35222); experiment: fluorescence polarization competition; full-length beta-catenin + 5FAM-TCF4(10-53) probe
Target sequence in this assay (P35222 whole entry): as above

| EC50 | Binder |
| --- | --- |
| 152 nM | B1 |
| 157 nM | B4 |
| 23 nM | B5 |
| 31 nM | B8 |
| 1120 nM | B9 |
| 43 nM | B10 |

biological target: full-length beta-Catenin (Uniprot ID P35222) (Homo sapiens (Human)) (UniProt P35222); experiment: fluorescence polarization competition; 10 nM full-length beta-catenin + 10 nM 5FAM-TCF4(10-53) probe
Target sequence in this assay (P35222 whole entry): as above

| EC50 | Binder |
| --- | --- |
| 5000 nM | B13 |
| 15 nM | B14 |
| 5000 nM | B15 |
| 99 nM | B17 |
| 2550 nM | B18 |
